Laboratory results from article doi:10.1101/2023.11.29.569220, “Spartin-mediated lipid transfer facilitates lipid droplet turnover” (bioRxiv, 2023).

Tests used:
Assay in all cases: native gel or EMSA; blue native PAGE, 4%-16% Bis-Tris gel, 4C, 1-2 ug protein purified in buffer A (50 mM HEPES, 500 mM NaCl, pH 8.0, 1 mM TCEP, 10% glycerol); migration according to MW against NativeMark standards
[1] = biological target: CeSpartin (C. elegans spartin) (C. elegans)
[2] = biological target: CtSpartinL (spartin-like protein from Chaetomium thermophilum) (Chaetomium thermophilum)
[3] = biological target: the molecule itself

**Q.** With “CeSpartin (C. elegans spartin) (natural protein)” as the molecule, how does the stoichiometry N [1] read?
**A.** Its stoichiometry N is 3.

**Q.** With “CtSpartinL (spartin-like protein from Chaetomium thermophilum) (natural protein)” as the molecule, how does the stoichiometry N [2] read?
**A.** Its stoichiometry N is 3.

B1: HsSpartin (human spartin, SPG20) (natural protein, UniProt Q8N0X7 1-666, looked up)
chain: MEQEPQNGEPAEIKIIREAYKKAFLFVNKGLNTDELGQKEEAKNYYKQGIGHLLRGISISSKESEHTGPGWESARQMQQKMKETLQNVRTRLEILEKGLATSLQNDLQEVPKLYPEFPPKDMCEKLPEPQSFSSAPQHAEVNGNTSTPSAGAVAAPASLSLPSQSCPAEAPPAYTPQAAEGHYTVSYGTDSGEFSSVGEEFYRNHSQPPPLETLGLDADELILIPNGVQIFFVNPAGEVSAPSYPGYLRIVRFLDNSLDTVLNRPPGFLQVCDWLYPLVPDRSPVLKCTAGAYMFPDTMLQAAGCFVGVVLSSELPEDDRELFEDLLRQMSDLRLQANWNRAEEENEFQIPGRTRPSSDQLKEASGTDVKQLDQGNKDVRHKGKRGKRAKDTSSEEVNLSHIVPCEPVPEEKPKELPEWSEKVAHNILSGASWVSWGLVKGAEITGKAIQKGASKLRERIQPEEKPVEVSPAVTKGLYIAKQATGGAAKVSQFLVDGVCTVANCVGKELAPHVKKHGSKLVPESLKKDKDGKSPLDGAMVVAASSVQGFSTVWQGLECAAKCIVNNVSAETVQTVRYKYGYNAGEATHHAVDSAVNVGVTAYNINNIGIKAMVKKTATQTGHTLLEDYQIVDNSQRENQEGAANVNVRGEKDEQTKEVKEAKKKDK
notes: Spartin (SPG20), human, Uniprot Q8N0X7, full-length; gene synthesized and cloned into pCMV10 with an N-terminal 3xFLAG tag; The Expi293 methods describe only elution with 3xFLAG peptide and no protease step; source: Expi293 cells, purified (anti-FLAG resin); not shown: 3xFLAG, N-terminal, cleaved
**Q.** How did the “stoichiometry N” value [3] turn out when B1 was run?
**A.** Its value is ~3.
